Reference: PMC11543664

How the values were obtained:
[1] = target: DosP^FLAG-R97A (full-length DosP with R97A and three copies of the FLAG motif on its C-terminus) (Escherichia coli); assay: cryo-EM structure
[2] = target: DosP^WT (wild-type full-length DosP, tag-free after TEV cleavage) (Escherichia coli); assay: cryo-EM structure

Substance	stoichiometry N [1]	stoichiometry N [2]
DosP^FLAG-R97A (full-length DosP with R97A and three copies of the FLAG motif on its C-terminus) (enzyme)	2	–
DosP^WT (wild-type full-length DosP, tag-free after TEV cleavage) (enzyme)	–	2
